Each block holds one binder with its values, some of them ahead of it.
What was measured:
cyno CCR8 [1] = biological target: T1, cyno CCR8 (cynomolgus monkey, UniProt O97665 1-356 (rhesus entry)); experiment: flow cytometry on human and cyno CCR8 CHO cells
T1 construct: also called cynomolgus monkey CCR8

human CCR8 [2] = biological target: T2, human CCR8 (human, UniProt P51685 1-355); experiment: cell-based or functional assay
human CCR3 = biological target: T3, human CCR3 (human, UniProt P51677 1-355); experiment: flow cytometry, HEK293 transiently transfected with N-term FLAG-tagged human CCR3, antibody at 5 ug/ml
T3 construct: whole, on cells; transiently expressed on HEK293 cells
T3 sequence (looked up): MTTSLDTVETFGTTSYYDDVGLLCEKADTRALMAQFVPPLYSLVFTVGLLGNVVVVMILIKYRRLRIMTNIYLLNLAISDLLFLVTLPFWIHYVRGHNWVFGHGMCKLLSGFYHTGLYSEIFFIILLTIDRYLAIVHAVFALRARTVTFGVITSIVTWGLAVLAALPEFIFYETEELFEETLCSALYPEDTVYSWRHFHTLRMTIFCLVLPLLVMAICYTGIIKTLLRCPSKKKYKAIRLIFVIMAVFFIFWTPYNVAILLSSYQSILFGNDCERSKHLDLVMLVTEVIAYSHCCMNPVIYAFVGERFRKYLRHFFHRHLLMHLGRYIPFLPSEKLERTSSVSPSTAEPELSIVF
Excerpt: (§1) FIGS. 4A-4F depicts the binding data of hu.Ab3.H1L1 (FIG. 4A), hu.Ab4.H1L1 (FIG. 4B), and hu.Ab5.H1L1 (FIG. 4C), as well as the commercial anti-CCR8 mAbs murine anti-human CCR8 mAb 433H (BD Biosciences) (FIG. 4D), and murine anti-human CCR8 mAb L263G8 (Biolegend) (FIG. 4E), and the humanized anti-human Yoshida anti-CCR8 mAb (FIG. 4F), to HEK293 cells that were transiently transfected with N-term FLAG-tagged plasmids encoding for human GPCRs (CCR2, CCR3, CCR4, CCR5, CCR8, CXCR4, ACKR2, and ACKR4), hCCR8 constructs, or with a mock construct using transIT X2 (reagent:DNA=3:1).
(§2) To confirm the selectivity to CCR8, the binding of hu.Ab3.H1L1, hu.Ab4.H1L1, and hu.Ab5.H1L1, as well as the Yoshida humanized anti-human CCR8, murine anti-human CCR8 mAb L263G8 (Biolegend, Commercial Ab) and murine anti-human CCR8 mAb 433H (BD Biosciences, Commercial Ab), were characterized by flow cytometry on HEK293 cells that were transiently transfected with plasmids encoding for FLAG-tagged other related human GPCRs (CCR2-5, CXCR4, ACKR2, and ACKR4). Cell surface expression of each GPCR was confirmed by staining with an anti-FLAG antibody control. […]

human CXCR4 = biological target: T4, human CXCR4 (human, UniProt P61073 1-352); experiment: flow cytometry, HEK293 transiently transfected with N-term FLAG-tagged human CXCR4, antibody at 5 ug/ml
T4 construct: whole, on cells; transiently expressed on HEK293 cells
T4 sequence (P61073 whole entry): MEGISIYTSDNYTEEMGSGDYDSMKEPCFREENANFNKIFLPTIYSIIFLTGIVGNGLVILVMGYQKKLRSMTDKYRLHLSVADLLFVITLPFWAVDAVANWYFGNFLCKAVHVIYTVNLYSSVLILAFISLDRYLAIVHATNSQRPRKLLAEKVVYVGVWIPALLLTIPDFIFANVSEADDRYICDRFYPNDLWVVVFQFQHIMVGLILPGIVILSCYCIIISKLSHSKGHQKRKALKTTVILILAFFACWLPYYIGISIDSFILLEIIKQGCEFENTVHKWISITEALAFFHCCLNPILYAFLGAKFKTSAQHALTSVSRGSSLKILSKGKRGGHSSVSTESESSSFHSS
Excerpt: as §1, §2

human ACKR4 = biological target: T5, human ACKR4 (human, UniProt Q9NPB9 1-350); experiment: flow cytometry, HEK293 transiently transfected with N-term FLAG-tagged human ACKR4, antibody at 5 ug/ml
T5 construct: whole, on cells; transiently expressed on HEK293 cells
T5 sequence (looked up): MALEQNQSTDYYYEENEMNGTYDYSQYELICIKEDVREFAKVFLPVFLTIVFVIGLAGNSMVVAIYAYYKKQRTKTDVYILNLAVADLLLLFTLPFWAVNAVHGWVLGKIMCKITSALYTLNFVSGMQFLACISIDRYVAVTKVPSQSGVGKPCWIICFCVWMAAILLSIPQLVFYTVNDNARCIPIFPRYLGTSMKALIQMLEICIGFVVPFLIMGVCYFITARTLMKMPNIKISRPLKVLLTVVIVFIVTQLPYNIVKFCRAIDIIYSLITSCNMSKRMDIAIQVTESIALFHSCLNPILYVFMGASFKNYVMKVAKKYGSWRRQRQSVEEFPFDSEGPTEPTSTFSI
Excerpt: as §1, §2

human CCR5 = biological target: T6, human CCR5 (human, UniProt P51681 1-352); experiment: flow cytometry, HEK293 transiently transfected with N-term FLAG-tagged human CCR5, antibody at 5 ug/ml
T6 construct: whole, on cells; transiently expressed on HEK293 cells
T6 sequence (P51681 whole entry): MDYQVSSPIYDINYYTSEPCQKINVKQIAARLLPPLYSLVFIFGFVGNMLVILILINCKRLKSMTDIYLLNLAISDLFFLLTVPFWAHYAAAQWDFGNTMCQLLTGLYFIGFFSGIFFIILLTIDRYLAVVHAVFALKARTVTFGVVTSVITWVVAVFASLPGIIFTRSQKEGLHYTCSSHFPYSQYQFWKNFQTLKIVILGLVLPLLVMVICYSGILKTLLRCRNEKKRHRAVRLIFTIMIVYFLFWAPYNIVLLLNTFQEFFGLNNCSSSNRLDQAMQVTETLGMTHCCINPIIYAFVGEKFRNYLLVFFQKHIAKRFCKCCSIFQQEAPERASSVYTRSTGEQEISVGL
Excerpt: as §1, §2

human CCR2 = biological target: T7, human CCR2 (human, UniProt P41597 1-374); experiment: flow cytometry, HEK293 with N-term FLAG-tagged human CCR2
T7 construct: whole, on cells; transiently expressed on HEK293 cells
T7 sequence (P41597 whole entry): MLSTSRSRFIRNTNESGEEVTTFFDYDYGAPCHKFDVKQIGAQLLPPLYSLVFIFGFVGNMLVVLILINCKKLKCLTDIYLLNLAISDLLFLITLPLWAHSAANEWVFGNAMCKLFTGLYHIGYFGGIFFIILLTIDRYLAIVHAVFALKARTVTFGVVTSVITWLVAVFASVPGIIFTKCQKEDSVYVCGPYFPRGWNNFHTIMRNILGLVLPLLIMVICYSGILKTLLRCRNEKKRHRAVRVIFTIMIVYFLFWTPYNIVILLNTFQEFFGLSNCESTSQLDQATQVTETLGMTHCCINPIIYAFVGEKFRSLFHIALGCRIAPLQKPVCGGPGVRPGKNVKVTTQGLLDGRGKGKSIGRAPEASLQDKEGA
Excerpt: as §1
To confirm the selectivity to CCR8, the binding of hu.Ab3.H1L1, hu.Ab4.H1L1, and hu.Ab5.H1L1, as well as the Yoshida humanized anti-human CCR8, murine anti-human CCR8 mAb L263G8 (Biolegend, Commercial Ab) and murine anti-human CCR8 mAb 433H (BD Biosciences, Commercial Ab), were characterized by flow cytometry on HEK293 cells that were transiently transfected with plasmids encoding for FLAG-tagged other related human GPCRs (CCR2-5, CXCR4, ACKR2, and ACKR4). Cell surface expression of each GPCR was confirmed by staining with an anti-FLAG antibody control. In particular, HEK293 cells were transfected with N-term FLAG-tagged human CCR2, CCR3, CCR4, CCR5, CXCR4, ACKR2, ACKR4, hCCR8 constructs, or with a Mock construct using transIT X2 (reagent:DNA=3:1) for 24 hours, and surface stained with various anti-hCCR8 monoclonal antibodies at 5 ug/ml, or rabbit anti-Flag pAb (Sigma) followed by AF647-anti-hIgG or AF647-anti-RbIgG respectively. Antibodies hu.Ab4.H1L1, and hu.Ab5.H1L1, only stained the hCCR8-containing cells, confirming their specificity to hCCR8. […] Thus, the CCR8 selective hu.Ab4.H1L1 and hu.Ab5.H1L1 antibodies with the best ADCC activities were carried forward.

human CCR8 [3] = biological target: T2, human CCR8; experiment: flow cytometry, 2 ug/mL mAb, Treg cells of human colorectal dissociated tumor cells
Protocol: (§3) The mAbs were evaluated for binding to regulatory T cells (Treg cells or Tregs) by Fluorescence-Activated Cell Sorting (FACS) flow cytometry. Human colorectal dissociated tumor cells (DTC) (Discovery Life Sciences) were thawed according to vendor's protocol. Cells were surface stained with eFluor 780-conjugated Fixable Viability Dye (ThermoFisher Scientific) and 2 ug/mL mAb specific for CCR8, OX40 (positive control), Herceptin (negative control), or anti-hIgG (negative control) for 20 min at 4° C. followed by secondary detection with AF647-conjugated AffiniPure F(ab′)2 Fragment Goat anti-Human IgG, Fcg fragment-specific (Jackson ImmunoResearch) for 10 min at 4° C. Cells were then intracellularly stained using the eBioscience Foxp3/Transcription Factor Staining Buffer Set (ThermoFisher Scientific) according to the manufacturer's protocol. […] Shown in FIG. 1 are mean fluorescent intensity (MFI) values for CD8 T cells (defined as CD45+CD14−CD3+CD8+CD4−) (circles, ◯), conventional CD4 T cells (defined as CD45+CD14−CD3+CD8−CD4+FOXP3−) (squares, □), and Treg cells (defined as CD45+CD14−CD3+CD8−CD4+FOXP3+) (triangles, ▴). Three of the five CCR8 mAb clones specifically stained Treg cells and not conventional CD4 or CD8 T cells and were ranked according to CCR8 MFI, greater than 500 MFI: hu.Ab4.H1L1>hu.Ab5.H1L1>hu.Ab3.H1L1. Upon confirmation that these three CCR8 mAb clones, namely, hu.Ab3.H1L1, hu.Ab4.H1L1, and hu.Ab5.H1L1, also retained human-cyno cross-reactivity (differences less than 5-fold on human and cyno CCR8 CHO cells), these antibodies carried forward for further exploration.

GST-FcgR3a.V158 [4] = biological target: T8, GST-FcgR3a.V158 (UniProt P08637 17-208, limits assumed); experiment: ELISA, GST-FcgR3a.V158 captured by anti-GST antibody
T8 construct: Captured by anti-GST antibody on ELISA plate; also called FcgR3a.V158 protein; Fcgamma RIIIa V158; not shown: GST tag
T8 sequence (P08637 17-208 F176V limits assumed): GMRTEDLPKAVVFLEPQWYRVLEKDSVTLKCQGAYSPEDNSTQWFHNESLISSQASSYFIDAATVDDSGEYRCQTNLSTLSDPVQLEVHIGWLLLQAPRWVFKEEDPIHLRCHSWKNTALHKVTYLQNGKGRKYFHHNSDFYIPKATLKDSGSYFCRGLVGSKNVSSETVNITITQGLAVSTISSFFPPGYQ
Protocol: (§4) The binding of fucosylated and afucosylated variants of hu.Ab5.H13L1 and hu.Ab4.H12L3 to both FcgR3a proteins by ELISA was studied. Briefly, an anti-GST antibody was coated on Nunc Maxisorp plates. GST-FcgR3a.V158 and GST-FcgR3a.F158 were captured at 500 ng/mL. Plates were then washed and then serially diluted anti-CCR8 antibodies starting at 100 ug/mL were incubated on the plate for 1 hour at room temperature. Plates were washed and bound antibody was detected by a HRP-conjugated anti-human IgG secondary antibody. Absorbance at 450 nm was measured by a plate reader. The data were fitted using a 4-parameter logistic curve in Softmax Pro.

human CCR8 [5] = biological target: T2, human CCR8; experiment: cell-based or functional assay; remark: listed apart in the source
GST-FcgR3a.F158 [6] = biological target: T9, GST-FcgR3a.F158 (UniProt P08637 17-208, limits assumed); experiment: ELISA, GST-FcgR3a.F158 captured by anti-GST antibody
T9 construct: Captured by anti-GST antibody on ELISA plate; also called FcgR3a.F158 protein; Fcgamma RIIIa F158; not shown: GST tag
T9 sequence (P08637 17-208 limits assumed): as the sequence (P08637 17-208 F176V limits assumed) above, with V160F counted along it
Protocol: as §4

human CCR8 [7] = biological target: T2, human CCR8; experiment: cell-based or functional assay; remark: listed apart in the source
GST-FcgR3a.V158 [8] = biological target: T8, GST-FcgR3a.V158; experiment: ELISA, GST-FcgR3a captured by anti-GST antibody
Protocol: as §4

GST-FcgR3a.F158 [9] = biological target: T9, GST-FcgR3a.F158; experiment: ELISA, GST-FcgR3a captured by anti-GST antibody
Protocol: as §4

cyno CCR8 [10] = biological target: T1, cyno CCR8; experiment: whole-blood flow cytometry of cyno blood spiked ex vivo with a saturating concentration of the antibody, detected with labeled goat anti-human IgG on FoxP3+ T-reg cells; relative percentage of CCR8+ T-reg cells
Protocol: Blood was collected from each of the animals before dosing (“Pre-study”), as well as on Day 1 at 0 hours (“Pre-dose”). Each of the animals were then administered a single dose of 10 mg/kg afucosylated anti-gD (Control Group), Afuc.hu.Ab5.H13L1 (Group 2) or Afuc.hu.Ab4.H12L3 (Group 3) via intravenous injection. Blood was then collected from the animals and subjected to the following treatment prior to flow cytometry analysis: (i) blood sample not spiked with either test CCR8 mAb (“unspiked”), (ii) blood sample further spiked with a saturating concentration of Afuc.hu.Ab5.H13L1, and (iii) blood sample further spiked with a saturating concentration of Afuc.hu.Ab4.H12L3. Each of the unspiked and spiked samples were subsequently treated with a labeled goat anti-human IgG antibody and analyzed by flow cytometry. […] Furthermore, flow cytometry of spiked blood also had very little effect on the total CCR8+T-reg cell count.
Anti-CCR8 antibodies Afuc.hu.Ab5.H13L1, Afuc.hu.Ab4.H12L3, and the control anti-gD were used for this study.

human CCR8 [11] = biological target: T2, human CCR8; experiment: flow cytometry, human colorectal cancer dissociated tumor cells, 2 ug/mL mAb, AF647 anti-human IgG; CCR8 read on Treg cells
Protocol: as §3, with “Upon confirmation that these three CCR8 mAb clones, namely, hu.Ab3.H1L1, hu.Ab4.H1L1, and hu.Ab5.H1L1, also retained human-cyno cross-reactivity (differences less than 5-fold on human and cyno CCR8 CHO cells), these antibodies carried forward for further exploration.” left out

T1 sequence (O97665 other isoform, or with tags, fused parts or gaps): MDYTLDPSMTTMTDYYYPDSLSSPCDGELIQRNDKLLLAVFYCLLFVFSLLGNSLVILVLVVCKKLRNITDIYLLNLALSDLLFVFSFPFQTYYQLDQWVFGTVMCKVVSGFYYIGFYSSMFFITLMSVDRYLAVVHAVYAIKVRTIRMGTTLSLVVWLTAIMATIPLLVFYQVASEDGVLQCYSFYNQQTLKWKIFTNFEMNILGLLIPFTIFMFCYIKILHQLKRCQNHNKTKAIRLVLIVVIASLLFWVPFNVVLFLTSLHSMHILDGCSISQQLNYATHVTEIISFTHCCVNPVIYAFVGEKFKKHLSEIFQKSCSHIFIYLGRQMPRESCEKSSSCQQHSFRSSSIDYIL

binding result (cyno CCR8 [1]): binds
ADCC EC50, NK-92_F158 effector cells, calcein release (human CCR8 [2]): 0.02 nM
binding result (human CCR3): binds
binding result (human CXCR4): binds
binding result (human ACKR4): binds
binding result (human CCR5): binds
binding result (human CCR2): no binding (tested: 5 ug/ml)
MFI (human CCR8 [3]): > 500 MFI
B1: hu.Ab3.H1L1 (antibody, human IgG1, kappa, V domains shown)
VH: EQQLVESGGGLVQPGGSLRLSCAVSGFSLSSYAMSWVRQAPGKGLEWIGVISASGRIIYATWAKGRFTISKDSAKTSVYLQMNSLRDEDTAVYFCARGVPSYSLVMSDWGPGTTVTVSS
VL: EPVMTQSPATLSVSPGERATLSCQASQSISNALAWYQQKPGQPPRLLIYEVSKVASGVPARFSGSGSGTEFTLTISSLQSEDFAVYYCQSAYYGNSYVWGAFGQGTKVEIKR
notes: humanized, human IgG1

EC50 (GST-FcgR3a.V158 [4]): 0.035 µg/mL
ADCC EC50, NK-92 F158 cells (FIG. 11A) (human CCR8 [5]): 0.0047 nM
ADCC EC50, NK-92 F158 cells (FIG. 11C) (human CCR8 [5]): 0.003 nM
ADCC EC50, NK-92 V158 cells (FIG. 11B) (human CCR8 [5]): 0.0073 nM
EC50 (GST-FcgR3a.F158 [6]): 0.101 µg/mL
ADCP EC50, macrophages HR/FF (FIG. 14A) (human CCR8 [7]): 0.017 nM
ADCP EC50, macrophages HR/FF (FIG. 14E) (human CCR8 [7]): 0.022 nM
ADCP EC50, macrophages HR/VF (FIG. 14C) (human CCR8 [7]): 0.01 nM
ADCP EC50, macrophages RR/FF (FIG. 14B) (human CCR8 [7]): 0.2 nM
ADCP EC50, macrophages RR/VF (FIG. 14D) (human CCR8 [7]): 0.5 nM
fold increase in binding potency versus fucosylated counterpart (GST-FcgR3a.V158 [8]): ~10 fold
fold increase in binding potency versus fucosylated counterpart (GST-FcgR3a.F158 [9]): ~10 fold
binding result (cyno CCR8 [10]): binds
B2: Afuc.hu.Ab5.H13L1 (antibody, human IgG1, kappa)
heavy: not shown
light: DIQVTQSPSSLSASVGDRVTITCQASENIANALAWYQQKPGKPPKFLIYGASNLASGVPSRFSGSGSGTDFTFTISSLQPEDIATYYCQQAYYGNSFVEGTFGGGTKVEIKRTVAAPSVFIFPPSDEQLKSGTASVVCLLNNFYPREAKVQWKVDNALQSGNSQESVTEQDSKDSTYSLSSTLTLSKADYEKHKVYACEVTHQGLSSPVTKSFNRGEC
modifications: afucosylated Fc N-glycan at position Asn299; between about 80% to about 95% afucosylation
notes: also called Afuc.Ab5.H13L1; afucosylated hu.Ab5.H13L1

binding result (human CCR8 [11]): binds
B3: hu.Ab2.H1L1 (antibody, human IgG1, kappa, V domains shown)
VH: EQQLVESGGGVVQPGRSLRLSCAASGFSFSYGYDMCWVRQAPGKGLEWIACISAGSSDNTWYASWAKGRFTISKDTSKTTVYLQMNSLRAEDTAVYFCSRYLGLWGPGTLVTVSS
VL: EQVLTQSPGTLSLSPGERATLSCQSSKSVNNNNLAWYQQKPGQPPRLLIYFASALASGVPDRFSGSGSGTDFTLTISRLEPEDFAVYYCQGAYSGGSDSYAFGGGTKVEIKR
notes: humanized rabbit anti-CCR8 antibody, human IgG1

— patent US20230049152A1 (Genentech, published 2023)
